This is an account of results in US9044392B2, “Nylon-3 co-polymers and synthetic lung surfactant compositions containing same” (Wisconsin Alumni Research Foundation, priority 2010, dated 2015).

Data set [1] is described as follows: Pulsating bubble surfactometry (PBS), dynamic-bubble mode, 20 cpm. The format is physicochemical. As to the method:
(§1) Surfactant Sample Preparation: The lipids DPPC, POPG, and PA were individually dissolved in a chloroform/methanol solution (3/1 [v/v]) to a known concentration (˜2 or 4 mg mL^−1). Single-lipid solutions were then combined by volume at the ratio of DPPC:POPG:PA, 68:22:9 [wt:wt:wt] and to a known total lipid concentration (˜2 mg mL^−1). This well-characterized and well-known lipid formulation is considered an adequate mimic of the non-protein (lipid) fraction of LS.^45 The peptides, peptoid, and copolymers were individually dissolved in methanol from a lyophilized powder to a known concentration (1-2 mg mL^−1). For the PBS studies, the peptides, peptoids, and polymers were ‘spiked’ into the lipid mixture at 10 wt % relative to the total lipid content (9.1 absolute wt %), and to a final concentration of ˜1 mg lipid mL^−1. For comparative purposes, the inclusion of peptide/peptoid/copolymer at 10 wt % corresponds to 10 wt % SP-B1-25 (9.1 absolute wt %) relative to the total lipid content. The total combined protein fraction in natural LS is estimated to be ˜10 wt %.^18 For PBS experiments, all σ reported is the standard deviation of the mean.
(§2) Pulsating Bubble Surfactometry: A commercial PBS instrument (General Transco, Largo, Fla.), modified with a direct, real-time imaging system, which has been previously described and validated in detail,^44 was utilized to obtain both static-mode and dynamic-mode data. Samples were dried from chloroform/methanol 3/1 [v/v] in Eppendorf tubes using a DNA 120 speedvac (Thermo Electron, Holbrook, N.Y.), forming a pellet. The pellet was suspended in buffer (150 mM NaCl, 10 mM HEPES, 5 mM CaCl2, pH 6.9) to 1.0 mg lipid mL^−1, with a final known volume of ˜70 μL. The samples were then mixed with a pipette 20 times, sonicated with a Fisher Model 60 probe sonicator for two 15 second spurts, and then mixed again 20 times to form a dispersed suspension. Samples were then loaded into a small plastic sample chamber (General Transco) using a modified leak-free methodology.^43,44 The sample chamber was then placed in the instrument, surrounded by a water bath held at 37° C. A bubble with a radius of 0.4 mm was then formed, and surface area was monitored throughout the experiment.
(§3) Static-mode adsorption data were collected for 20 minutes, where the suspension was allowed to adsorb to the bubble surface over time. […] Dynamic-mode data were then subsequently obtained for each sample at the adult respiratory cycle frequency of 20 cpm for 10 minutes, with a 50% reduction in surface area per pulsation cycle. PBS experiments were repeated three to six times for each sample to ensure repeatability. Representative PBS loops are presented at five minutes of cycling, and indicate clockwise bubble expansion and counterclockwise compression (see FIGS. 6A, 6B, 6C, and 6D). Average γ±σ at selected time intervals are listed in the Examples for both data collection modes. Percent compression is defined here as 100*[(SAmax−SA20)/(SAmax)], where SAmax was the maximum SA value at expansion, and SA20 was the SA at which γ first reaches 20 mN m^−1 upon compression (FIG. 5).
Pulsating Bubble Surfactometry: Dynamic-Bubble Mode. The dynamic surfactant activity during changes in volume or film surface area provides an indication of film sustainability over time. Bubble pulsation at the approximate adult respiratory rate of 20 cycles per minute (cpm) in PBS dynamic-bubble mode at 37° C. permits a simplified evaluation of such dynamic film behavior.^44 In dynamic mode, after static-bubble adsorption, the bubble was subsequently pulsed for 10 minutes and y was recorded with respect to surface area. FIGS. 4A, 4B, 4C, and 4D depict the attained maximum and minimum γ (γmax/min) at 5 minutes of cycling for all lipid films containing polymers or positive controls. Mean γmax/min's±σ at selected time intervals for up to 10 minutes of cycling are located in Tables 4 and 5. […]

Data set [2] can be described thus: Pulsating bubble surfactometry (PBS), static-bubble mode adsorption. The format is physicochemical. Conditions: 37° C., mimic 10 wt % in TL, originally synthesized polymers. As to the method: as §1, §2, §3
Pulsating Bubble Surfactometry: Static-Bubble Mode. The immediate adsorptive, γ-reducing effect, and stability of the films over time at a bubble […] interface were assessed via PBS in static-bubble mode. […]

The conditions of data set [3]: at 5 minutes, static-bubble mode, TL film; cited from earlier work.
The conditions of data set [4]: dynamic-bubble mode, cited from earlier work.
[5] abbreviates: 5 minutes of dynamic-bubble cycling, 20 cpm, 37° C. (FIGS. 4A-4D).
Setting [6] is: dynamic-bubble pulsation, 1 min, 37° C., mimic 10 wt % in TL, originally synthesized polymers.
Setting [7] is: dynamic-bubble pulsation, 2.5 min, 37° C., mimic 10 wt % in TL, originally synthesized polymers.
The mark [8] stands for this setting: dynamic-bubble pulsation, 10 min, 37° C., mimic 10 wt % in TL, originally synthesized polymers.

Read-outs that look alike come from different tables or passages of the source.

“SP-B1-25: modified peptide SP-B1-25 (Cys8,11→Ala), surface-active peptide fragment of SP-B, positive control (FPIPLPYAWLARALIKRIQAMIPKG; Pulmonary surfactant-associated protein B in Tanaka lipid film; UniProt P07988 201-225, looked up, variant C8A C11A)”: in data set [1] (setting [5]), the γmax was approximately 50 mN m^−1 and the γmin result was “near zero”. In addition, the “Avg % Comp: percent bubble surface area compression required to reach 20 mN m-1 upon compression” value in data set [1] (at 5 minutes of dynamic-bubble pulsation on the PBS, 37° C.) turned out to be 33.2%. Further, in data set [1] (setting [6]), the “γ max Avg, 1 min” value is 49.6 mN m−1 and the “γ min Avg, 1 min” value was less than 1 mN m−1. Besides, in data set [1] (setting [7]), the “γ max Avg, 2.5 min” value was found to be 49.9 mN m−1 and the “γ min Avg, 2.5 min” value is less than 1 mN m−1. Further, in data set [1] (setting [8]), the “γ max Avg, 10 min” value was 49.8 mN m−1 and the “γ min Avg, 10 min” value was less than 1 mN m−1. Besides, the “γ 1 min Avg (mean surface tension)” value in data set [2] (1 min) is 40.5 mN m−1. Also, the “γ 2.5 min Avg (mean surface tension)” value in data set [2] (2.5 min) was determined as 39.4 mN m−1. In addition, in data set [2] (5 min), the “γ 5 min Avg (mean surface tension)” value is given as 37.9 mN m−1. Moreover, the “γ 10 min Avg (mean surface tension)” value in data set [2] (10 min) was 36.8 mN m−1. For the same molecule, the “γeq 20 min Avg (mean surface tension)” value in data set [2] (20 min) was 35.6 mN m−1.

B1: SP-B: porcine-derived lung surfactant protein B in the Tanaka lipid film (protein, UniProt P15782 1-79, looked up)
Pulmonary …: FPIPLPFCWLCRTLIKRIQAVVPKGVLLKAVAQVCHVVPLPVGGICQCLAERYIVICLNMLLDRTLPQLVCGLVLRCSS
modifications: Pulmonary surfactant-associated protein B in Tanaka lipid film
On to B1, for which the “adsorbed γ” value in data set [3] is approximately 26 mN m^−1. Also, in data set [4] (PBS cycling loop), the γmax is approximately 36 mN m^−1 and the γmin result is given as “near-zero”. The “percent compression to reach 20 mN m^−1” value in data set [4] was approximately 21%.
